Assay results: US20020150567A1 (University of California, published 2002)

Molecular target: T1, GST (UniProt P08515 1-218 = GST)
T1 construct: Control protein; also called GST itself
Test: Far-Western blot with radioactively labeled probe
Excerpt: A bacterially expressed GST-GRB2 fusion protein containing a 5 amino acid RRASV heart muscle kinase site was purified and radioactively labeled with [³²P]ATP.

T1 sequence (P08515 whole entry): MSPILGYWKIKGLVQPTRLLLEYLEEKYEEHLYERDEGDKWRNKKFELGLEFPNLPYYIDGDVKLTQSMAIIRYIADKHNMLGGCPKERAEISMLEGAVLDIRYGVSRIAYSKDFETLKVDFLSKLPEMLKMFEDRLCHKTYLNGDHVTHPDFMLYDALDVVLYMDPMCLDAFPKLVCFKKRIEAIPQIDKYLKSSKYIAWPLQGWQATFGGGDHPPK

binding result: no binding
B1: p85 SH3 domain (amino acids 1-81) (other, UniProt P26450 1-81, looked up)
chain: MSAEGYQYRALYDYKKEREEDIDLHLGDILTVNKGSLVALGFSDGQEARPEDIGWLNGYNETTGERGDFPGTYVEYIGRKR
modifications: radioactively labeled
notes: range 1-81
